Assay results taken from patent US20030100501A1 (CASE WESTERN RESERVE UNIVERSITY, published 2003).
Square brackets hold non-standard residues; d marks the D form. Ends that are not written are not given here. Nle = CCCC[C@H](N)C(=O)O

Experiments:
mutant G551D CFTR = mutant G551D CFTR (UniProt P13569 1-1480, limits assumed); assay: cell-based or functional assay
[1] = target: wild-type CFTR (cystic fibrosis transmembrane conductance regulator) (UniProt P13569 1-1480, limits assumed); assay: cell-based or functional assay
Chain of wild-type CFTR (cystic fibrosis transmembrane conductance regulator) (P13569 whole entry): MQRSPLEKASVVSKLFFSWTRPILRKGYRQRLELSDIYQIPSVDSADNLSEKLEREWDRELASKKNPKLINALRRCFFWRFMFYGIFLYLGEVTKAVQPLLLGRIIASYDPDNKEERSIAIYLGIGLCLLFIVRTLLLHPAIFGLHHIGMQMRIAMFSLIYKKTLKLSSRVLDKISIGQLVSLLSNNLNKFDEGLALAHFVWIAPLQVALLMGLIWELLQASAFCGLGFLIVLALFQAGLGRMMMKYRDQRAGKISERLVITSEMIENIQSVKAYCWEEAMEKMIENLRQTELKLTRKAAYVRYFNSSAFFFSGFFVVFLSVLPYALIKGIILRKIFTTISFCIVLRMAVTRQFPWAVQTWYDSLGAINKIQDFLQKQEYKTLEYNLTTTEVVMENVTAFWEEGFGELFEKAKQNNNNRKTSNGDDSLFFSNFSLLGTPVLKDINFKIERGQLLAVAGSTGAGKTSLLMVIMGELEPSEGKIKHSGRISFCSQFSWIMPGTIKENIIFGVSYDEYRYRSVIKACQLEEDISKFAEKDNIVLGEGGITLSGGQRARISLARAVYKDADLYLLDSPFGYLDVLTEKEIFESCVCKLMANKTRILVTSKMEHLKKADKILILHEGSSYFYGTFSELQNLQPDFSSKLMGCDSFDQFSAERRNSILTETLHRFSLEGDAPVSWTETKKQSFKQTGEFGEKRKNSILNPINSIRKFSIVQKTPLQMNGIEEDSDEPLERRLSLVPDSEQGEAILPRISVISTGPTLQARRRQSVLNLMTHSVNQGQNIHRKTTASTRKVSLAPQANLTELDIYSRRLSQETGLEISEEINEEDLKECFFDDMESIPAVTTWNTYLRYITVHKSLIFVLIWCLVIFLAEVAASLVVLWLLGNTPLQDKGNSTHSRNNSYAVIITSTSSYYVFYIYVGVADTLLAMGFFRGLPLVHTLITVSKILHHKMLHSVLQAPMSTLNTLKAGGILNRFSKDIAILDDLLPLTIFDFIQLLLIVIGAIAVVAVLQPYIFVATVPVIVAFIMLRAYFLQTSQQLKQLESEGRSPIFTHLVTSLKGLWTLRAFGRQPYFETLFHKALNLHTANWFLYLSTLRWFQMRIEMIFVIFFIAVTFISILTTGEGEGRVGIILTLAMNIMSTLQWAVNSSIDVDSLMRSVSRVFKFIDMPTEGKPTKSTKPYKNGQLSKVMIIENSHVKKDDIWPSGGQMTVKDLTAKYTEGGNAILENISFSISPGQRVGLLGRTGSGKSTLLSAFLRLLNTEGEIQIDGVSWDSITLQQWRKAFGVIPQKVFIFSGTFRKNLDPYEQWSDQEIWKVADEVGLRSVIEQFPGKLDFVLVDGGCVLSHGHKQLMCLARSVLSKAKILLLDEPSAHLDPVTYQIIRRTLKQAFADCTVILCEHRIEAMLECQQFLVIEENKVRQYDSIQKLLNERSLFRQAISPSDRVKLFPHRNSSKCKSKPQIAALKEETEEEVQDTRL

Chain of mutant G551D CFTR (P13569 whole entry G551D): as the sequence (P13569 whole entry) above, with G551D counted along it

B1: Q4N2NEG2 polypeptide (peptide)
peptide: Ac-GLEISEQINQQNLKQSFFND[Nle]E
open probability in planar lipid bilayer (mutant G551D CFTR): ~3 fold
open probability (Po) of CFTR channels in planar lipid bilayer [1]: 2 fold
open probability of single wt-CFTR channels in planar lipid bilayer, 4 µM peptide, 5 experiments [1]: ~2 fold
